# Experimental data as given in the RNAGym collection of RNA variant scans (doi:10.1073/pnas.2313332121).
# B1: TPR t1 (parent)
# chain: GACCAAUCUGCCCUCAGAGCUCGAGAACAUCUUCGGAUGCAGAGGAGGCAGGCUUCGGUGGCGCGAUAGCGCCAACGUCCUCAACCUCCAAUGCAUCCCACCACAUGAUGAUGCCUGAAGAGCCUUGGUUUUUUG
# Variants of: B1
# Experiment: polymerase ribozyme fitness, log enrichment relative to wild type (log ratio); higher = more active; in vitro selection for triplet polymerase activity
# In short: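 Fitness compares each genotype's enrichment to that of the wild type on a logarithmic scale, averaging replicates with inverse-variance weights. The logarithm is base 2. Enrichment came from Illumina sequencing of input and output libraries after one triplicate round of in vitro selection, which included frozen incubation at −7 °C, of PCR-built, transcribed mutant libraries of each subunit of a heterodimeric triplet polymerase ribozyme. Only genotypes with ≥10 input reads and ≥1 read per output were kept.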
row,Variant,polymerase ribozyme fitness (log ratio)
1,GACCAAUCUGCCCUCAGAGCUCGAGAACAUCUUCGGAUGCAGAGGAGGCAGGCUUCGGUGGCGCGAUAACGCCAACAUCCUCAACCUCCAAUGCAUCCCACCACAUGAUGAUGCCUGAAGAGCCUUGGUUUUUUG [G69A G77A],-2.61
2,GACCAAUCUGCCCUCAGAGCUCGAGAACAUCUUCGGAUGCAGAGGAGGCAGGCUUCGGUGGCGCGAUAACGCCAACCUCCUCAACCUCCAAUGCAUCCCACCACAUGAUGAUGCCUGAAGAGCCUUGGUUUUUUG [G69A G77C],-4.57
3,GACCAAUCUGCCCUCAGAGCUCGAGAACAUCUUCGGAUGCAGAGGAGGCAGGCUUCGGUGGCGCGAUAACGCCAACGUCCUCAACCUCCAAUGCAUCACACCACAUGAUGAUGCCUGAAGUGCCUUGGUUUUUUG [G69A C98A A121U],-6.1
4,GACCAAUCUGCCCUCAGAGCUCGAGAACAUCUUCGGAUGCAGAGGAGGCAGGCUUCGGUGGCGCGAUAACGCCAACGUCCUCAACCUCCAAUGCAUCCCACCACAUGAUGAUGCUUGAAGAGCCUUGGUUUUUUG [G69A C115U],-2.83
5,GACCAAUCUGCCCUCAGAGCUCGAGAACAUCUUCGGAUGCAGAGGAGGCAGGCUUCGGUGGCGCGAUAACGCCAACGUCCUCAACCUCCAAUGCAUCCCACCACAUGAUGAUGCAUGAAGAGCCUUGGUUUUUUG [G69A C115A],-1.77
6,GACCAAUCUGCCCUCAGAGCUCGAGAACAUCUUCGGAUGCAGAGGAGGCAGGCUUCGGUGGCGCGAUAACGCCAACGUCCUCAACCUCUAAUGCAUCCCACCACAUGAUGAUGCCUGAAGAGCCUUGGUUUUUUG [G69A C89U],-2.85
7,GACCAAUCUGCCCUCAGAGCUCGAGAACAUCUUCGGAUGCAGAGGAGGCAGGCUUCGGUGGCGCGAUAACGCCAACGUCCUCAACCUCAAAUGCAUCCCACCACAUGAUGAUGCCUGAAGAGCCUUGGUUUUUUG [G69A C89A],-4.54
8,GACCAAUCUGCCCUCAGAGCUCGAGAACAUCUUCGGAUGCAGAGGAGGCAGGCUUCGGUGGCGCGAUAACGCCAACGUCCUCAACCUCCAAUGCAUCCCACCACAUGAUGAUGACUGAAGGGCCUUGGUGUUUUG [G69A C114A A121G U130G],-4.38
9,GACCAAUCUGCCCUCAGAGCUCGAGAACAUCUUCGGAUGCAGAGGAGGCAGGCUUCGGUGGCGCGAUAACGCCAACGUCCUCAACCUCCAAUGCAUCCCACCAUAUGAUGAUGCCUGAAGAGCCUUGGUUUUUUG [G69A C104U],-2.37
10,GACCAAUCUGCCCUCAGAGCUCGAGAACAUCUUCGGAUGCAGAGGAGGCAGGCUUCGGUGGCGCGAUAACUCCAACGUCCUCAACCUCCAAUGCAUCCCACCACAUGAUGAUGCCUGAAGAGCCUUGGUUUUUUG [G69A G71U],-4.27
11,GACCAAUCUGCCCUCAGAGCUCGAGAACAUCUUCGGAUGCAGAGGAGGCAGGCUUCGGUGGCGCGAUAACGCCAACGUCCUCAACCUCCAAUGCAUCCCACCACAUCAUGAAGCCUGAAGAGCCUUGGUUUUUUG [G69A G107C U112A],-6.47
12,GACCAAUCUGCCCUCAGAGCUCGAGAACAUCUUCGGAUGCAGAGGAGGCAGGCUUCGGUGGCGCGAUAACGCCAACGUCCUCAACCUCCAAUGCAUCCUACCACAUGAUGAUGCCUGAAGAGCCUUGGUUUUUUG [G69A C99U],-5.78
13,GACCAAUCUGCCCUCAGAGCUCGAGAACAUCUUCGGAUGCAGAGGAGGCAGGCUUCGGUGGCGCGAUAACGCCAACGUCCUCAACCUCCAAUGCAUCCAACCACAUGAUGAUGCCUGAAGAGCCUUGGUUUUUUG [G69A C99A],-7.72
14,GACCAAUCUGCCCUCAGAGCUCGAGAACAUCUUCGGAUGCAGAGGAGGCAGGCUUCGGUGGCGCGAUAACGCCAACGUCCUCAACCUCCAAUACAUCCCACCACAUGAUGAUGCCUGAAGAGCCUUGGUUUUUUG [G69A G93A],-3.19
15,GACCAAUCUGCCCUCAGAGCUCGAGAACAUCUUCGGAUGCAGAGGAGGCAGGCUUCGGUGGCGCGAUAACGCCAACGUCCUCAACCUCCAAUUCAUCCCACCACAUGAUGAUGCCUGAAGAGCCUUGGUUUUUUG [G69A G93U],-4.03
16,GACCAAUCUGCCCUCAGAGCUCGAGAACAUCUUCGGAUGCAGAGGAGGCAGGCUUCGGUGGCGCGAUAACGCCAACGUCCUCAACCUCCAAUGCAUCCCAUCACAUGAUGAUGCCUGAAGAGCCUUGGUUUUUUG [G69A C101U],-2.16
17,GACCAAUCUGCCCUCAGAGCUCGAGAACAUCUUCGGAUGCAGAGGAGGCAGGCUUCGGUGGCGCGAUAACGCCAACGUCCUCAACCUCCAAUGCAUCCCAACACAUGAUGAUGCCUGAAGAGCCUUGGUUUUUUG [G69A C101A],-3.72
18,GACCAAUCUGCCCUCAGAGCUCGAGAACAUCUUCGGAUGCAGAGGAGGCAGGCUUCGGUGGCGCGAUAACGCCAACGUCCUCAACCUCCAAUGCAUCCCACAACAUGAUGAUGCCUGAAGAGCCUUGGUUUUUUG [G69A C102A],-6.02
19,GACCAAUCUGCCCUCAGAGCUCGAGAACAUCUUCGGAUGCAGAGGAGGCAGGCUUCGGUGGCGCGAUAACGCCAACGUCCUCAACCUCCAAUGCAUCCCACCACAUGAUUAUGCCUGAAGAGCCUUGGUUUUUUG [G69A G110U],-3.36
20,GACCAAUCUGCCCUCAGAGCUCGAGAACAUCUUCGGAUGCAGAGGAGGCAGGCUUCGGUGGCGCGAUAACGCCAACGUCCUCAACCUUCAAUGCAUCCCACCACAUGAUGAUGCCUGAAGAGCCUUGGUUUUUUG [G69A C88U],-2.7
21,GACCAAUCUGCCCUCAGAGCUCGAGAACAUCUUCGGAUGCAGAGGAGGCAGGCUUCGGUGGCGCGAUAACGCCAACGUCCUCAACCUACAAUGCAUCCCACCACAUGAUGAUGCCUGAAGAGCCUUGGUUUUUUG [G69A C88A],-1.98
